Source: patent US6884600B1, “Protein phosphatase-1 catalytic subunit interactions” (Medical Research Council London, priority 1996, dated 2005)

What was measured:
PP1c = molecular target: T1, PP1c (Oryctolagus cuniculus, UniProt P62143); experiment: Glycogen synthase phosphatase activity of PP1c; format: biochemical, rabbit
T1 construct: from tissue; host or cells: rabbit skeletal muscle (PP1G dissociated with LiBr)
Method: The glycogen synthase phosphatase activity of PP1c was measured after a 15 minute incubation at 30° C. with the indicated concentrations of M110-(M1-F38) and M110-(M1-E309). Similar results were obtained in three different experiments.
^32P-labelled rabbit skeletal muscle phosphorylase a (containing 1.0 mol phosphate per mol subunit) was prepared by phosphorylation with phosphorylase kinase, ^32P-labelled rabbit skeletal muscle glycogen synthase (containing 1.5 mol/mol subunit in the sites 3 region) was prepared by phosphorylation with glycogen synthase kinase-3 [24]). ^32P-labelled chicken gizzard MLC20 and ^32P-labelled chicken gizzard heavy meromyosin (containing 1.0 mol phosphate per mol subunit) were prepared by phosphorylation with smooth muscle myosin light chain kinase. The dephosphorylation of phosphorylase a (10 μM), glycogen synthase (1 μM) and MLC20 (1 μM) and heavy meromyosin (1 μM) was carried out as in [24]. One unit of activity (U) was that amount which released […] of phosphate in one minute.

myosin = molecular target: T2, myosin (Gallus gallus, UniProt P10587); experiment: Myosin binding assay (pelleting with myosin); design: species or system chicken; details: myosin 1 μM, 15 min 0° C.
T2 construct: from tissue; host or cells: chicken gizzard
T2 sequence (P10587 whole entry): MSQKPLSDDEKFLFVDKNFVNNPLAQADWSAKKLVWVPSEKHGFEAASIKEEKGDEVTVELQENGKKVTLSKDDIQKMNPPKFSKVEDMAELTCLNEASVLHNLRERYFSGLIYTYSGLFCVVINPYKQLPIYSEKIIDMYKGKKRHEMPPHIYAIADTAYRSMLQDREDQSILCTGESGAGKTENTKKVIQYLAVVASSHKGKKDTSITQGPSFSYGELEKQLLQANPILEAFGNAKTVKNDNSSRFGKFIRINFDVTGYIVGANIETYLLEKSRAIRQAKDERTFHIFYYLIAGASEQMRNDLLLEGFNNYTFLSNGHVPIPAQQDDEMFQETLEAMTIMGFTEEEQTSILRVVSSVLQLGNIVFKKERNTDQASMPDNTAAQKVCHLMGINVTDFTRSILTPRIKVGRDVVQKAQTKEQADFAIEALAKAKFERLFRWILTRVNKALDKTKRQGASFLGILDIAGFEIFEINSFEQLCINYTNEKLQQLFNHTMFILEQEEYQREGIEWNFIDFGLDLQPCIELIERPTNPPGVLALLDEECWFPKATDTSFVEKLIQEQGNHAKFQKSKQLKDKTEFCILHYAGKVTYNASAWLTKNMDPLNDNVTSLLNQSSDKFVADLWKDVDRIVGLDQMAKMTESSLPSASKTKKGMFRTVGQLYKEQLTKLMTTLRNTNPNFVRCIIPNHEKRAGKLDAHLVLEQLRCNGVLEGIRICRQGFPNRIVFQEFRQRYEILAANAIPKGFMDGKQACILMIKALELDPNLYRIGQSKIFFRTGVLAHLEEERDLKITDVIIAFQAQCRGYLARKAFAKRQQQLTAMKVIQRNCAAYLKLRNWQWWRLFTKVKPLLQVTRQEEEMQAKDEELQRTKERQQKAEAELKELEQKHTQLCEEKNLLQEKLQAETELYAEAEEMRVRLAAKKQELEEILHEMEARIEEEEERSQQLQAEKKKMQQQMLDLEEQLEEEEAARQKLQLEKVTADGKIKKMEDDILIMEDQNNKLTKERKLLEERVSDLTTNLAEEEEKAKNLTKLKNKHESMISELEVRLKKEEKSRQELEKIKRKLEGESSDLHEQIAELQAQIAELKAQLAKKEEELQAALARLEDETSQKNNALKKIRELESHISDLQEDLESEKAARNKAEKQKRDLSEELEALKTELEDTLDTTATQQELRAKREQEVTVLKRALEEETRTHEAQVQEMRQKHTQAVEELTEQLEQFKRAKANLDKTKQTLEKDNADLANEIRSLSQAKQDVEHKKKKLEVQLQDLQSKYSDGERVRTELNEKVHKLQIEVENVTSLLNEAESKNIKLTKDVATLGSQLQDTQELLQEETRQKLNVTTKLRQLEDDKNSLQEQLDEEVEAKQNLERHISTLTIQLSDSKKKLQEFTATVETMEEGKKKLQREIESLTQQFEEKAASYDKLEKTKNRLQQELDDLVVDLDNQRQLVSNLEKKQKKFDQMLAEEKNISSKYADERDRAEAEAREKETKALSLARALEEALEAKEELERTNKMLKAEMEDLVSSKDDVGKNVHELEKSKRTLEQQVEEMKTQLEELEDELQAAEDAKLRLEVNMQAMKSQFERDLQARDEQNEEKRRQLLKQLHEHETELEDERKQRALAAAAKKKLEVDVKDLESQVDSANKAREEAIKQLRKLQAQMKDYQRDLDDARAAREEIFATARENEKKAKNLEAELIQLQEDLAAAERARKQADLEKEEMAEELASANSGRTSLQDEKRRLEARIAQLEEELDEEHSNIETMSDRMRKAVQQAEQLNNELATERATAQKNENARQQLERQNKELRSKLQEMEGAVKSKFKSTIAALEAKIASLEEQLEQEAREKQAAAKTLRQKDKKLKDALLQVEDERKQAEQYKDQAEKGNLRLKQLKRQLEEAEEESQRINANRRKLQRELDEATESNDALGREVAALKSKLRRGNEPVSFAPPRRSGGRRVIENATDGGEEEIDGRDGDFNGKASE
T2 sequence (P02612 whole entry partner): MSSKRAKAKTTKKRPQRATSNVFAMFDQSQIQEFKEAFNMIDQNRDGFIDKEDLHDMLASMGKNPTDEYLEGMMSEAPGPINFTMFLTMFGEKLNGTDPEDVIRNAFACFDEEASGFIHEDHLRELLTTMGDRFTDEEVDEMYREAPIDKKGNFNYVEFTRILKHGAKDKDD
T2 sequence (P02607 whole entry partner): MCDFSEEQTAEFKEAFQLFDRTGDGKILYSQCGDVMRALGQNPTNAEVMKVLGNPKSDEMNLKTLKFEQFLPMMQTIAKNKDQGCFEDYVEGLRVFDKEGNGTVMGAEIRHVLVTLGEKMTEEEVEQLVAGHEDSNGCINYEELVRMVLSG
How it was run: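 PP1M, PP1c, PP1M(ΔM21) or M110 fragments (30 nM; M110 fragments and M21 at 100 nM) incubated 15 min at 0° C with 1 μM myosin in 10 mM Hepes pH 7.5, 50 mM KCl, 5 mM MgCl2, then centrifuged 2 min at 13,000×g. Supernatant, pellet and total analysed by immunoblot or P-light chain phosphatase activity.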

T1 sequence (P62143 whole entry): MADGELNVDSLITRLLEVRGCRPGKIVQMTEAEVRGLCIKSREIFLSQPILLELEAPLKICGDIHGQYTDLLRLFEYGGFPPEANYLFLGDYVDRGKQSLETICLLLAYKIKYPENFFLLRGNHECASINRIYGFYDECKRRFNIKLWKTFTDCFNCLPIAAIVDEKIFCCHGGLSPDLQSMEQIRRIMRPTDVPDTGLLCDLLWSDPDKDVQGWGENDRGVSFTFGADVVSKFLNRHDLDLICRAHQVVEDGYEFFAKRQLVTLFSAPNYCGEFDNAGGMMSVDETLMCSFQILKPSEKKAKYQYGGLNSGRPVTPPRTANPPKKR

B1: M110-(M1-E309): rat aorta M110 fragment, residues 1-309, released from GST-fusion protein with thrombin (protein)
chain: GSPGMKMADAKQKRNEQLKRWIGSETDLEPPVVKRQKTKVKFDDGAVFLAACSSGDTDEVLKLLHRGADINYANVDGLTALHQACIDDNVDMVKFLVENGANINQPDNEGWIPLHAAASCGYLDIAEFLIGQGAHVGAVNSEGDTPLDIAEEEAMEELLQNEVNRQGVDIEAARKEEERIMLRDARQWLNSGHISDVRHAKSGGTALHVAAAKGYTEVLKLLIQAGYDVNIKDYDGWTPLHAAAHWGKEEACRILVDNLCDMETVNKVGQTAFDVADEDILGYLEELQKKQNLLHSEKRDKKSPLIESTANMEA
**Q.** For B1, which “effect on the dephosphorylation of glycogen synthase by PP1c” value (PP1c) is on record?
**A.** Its value is “inhibited”.

**Q.** What about the binding to myosin (myosin) of the same molecule?
**A.** Its binding to myosin is “did not bind to myosin”.
